In PMC4534855 (2015) one finds response data, which are given here for four variants.

B1: Flag-eIF2β, wild type [S. cerevisiae] / eIF2Bε in yeast whole-cell extracts [yeast (endogenous in yeast whole-cell extracts)] (parent)
chain 1: MSSDLAAELGFDPALKKKKKTKKVIPDDFDAAVNGKENGSGDDLFAGLKKKKKKSKSVSADAEAEKEPTDDIAEALGELSLKKKKKKTKDSSVDAFEKELAKAGLDNVDAESKEGTPSANSSIQQEVGLPYSELLSRFFNILRTNNPELAGDRSGPKFRIPPPVCLRDGKKTIFSNIQDIAEKLHRSPEHLIQYLFAELGTSGSVDGQKRLVIKGKFQSKQMENVLRRYILEYVTCKTCKSINTELKREQSNRLFFMVCKSCGSTRSVSSIKTGFQATVGKRRRM
chain 2: MAGKKGQKKSGLGNHGKNSDMDVEDRLQAVVLTDSYETRFMPLTAVKPRCLLPLANVPLIEYTLEFLAKAGVHEVFLICSSHANQINDYIENSKWNLPWSPFKITTIMSPEARCTGDVMRDLDNRGIITGDFILVSGDVLTNIDFSKMLEFHKKMHLQDKDHISTMCLSKASTYPKTRTIEPAAFVLDKSTSRCIYYQDLPLPSSREKTSIQIDPELLDNVDEFVIRNDLIDCRIDICTSHVPLIFQENFDYQSLRTDFVKGVISSDILGKHIYAYLTDEYAVRVESWQTYDTISQDFLGRWCYPLVLDSNIQDDQTYSYESRHIYKEKDVVLAQSCKIGKCTAIGSGTKIGEGTKIENSVIGRNCQIGENIRIKNSFIWDDCIIGNNSIIDHSLIASNATLGSNVRLNDGCIIGFNVKIDDNMDLDRNTKISASPLKNAGSRMYDNESNEQFDQDLDDQTLAVSIVGDKGVGYIYESEVSDDEDSSTEACKEINTLSNQLDELYLSDDSISSATKKTKKRRTMSVNSIYTDREEIDSEFEDEDFEKEGIATVERAMENNHDLDTALLELNTLRMSMNVTYHEVRIATITALLRRVYHFIATQTLGPKDAVVKVFNQWGLLFKRQAFDEEEYIDLMNIIMEKIVEQSFDKPDLILFSALVSLYDNDIIEEDVIYKWWDNVSTDPRYDEVKKLTVKWVEWLQNADEESSSEEE
B2: Flag-eIF2β, wild type [S. cerevisiae] / eIF2α in yeast whole-cell extracts [yeast (endogenous in yeast whole-cell extracts)] (parent)
chain 1: B1 chain 1
chain 2: MSTSHCRFYENKYPEIDDIVMVNVQQIAEMGAYVKLLEYDNIEGMILLSELSRRRIRSIQKLIRVGKNDVAVVLRVDKEKGYIDLSKRRVSSEDIIKCEEKYQKSKTVHSILRYCAEKFQIPLEELYKTIAWPLSRKFGHAYEAFKLSIIDETVWEGIEPPSKDVLDELKNYISKRLTPQAVKIRADVEVSCFSYEGIDAIKDALKSAEDMSTEQMQVKVKLVAAPLYVLTTQALDKQKGIEQLESAIEKITEVITKYGGVCNITMPPKAVTATEDAELQALLESKELDNRSDSEDDEDESDDE

The variants in one experiment derive from B1. In words: co-immunoprecipitation with FLAG affinity resin, quantified western. The following applies: three biological replicates, read off a plot.
Take chain 1 MSSDLAAELGFDPALKKKKKTKKVIPDDFDAAVNGKENGSGDDLFAGLKKKKKKSKSVSADAEAEKEPTDDIAEALGELSLKKKKKKTKDSSVDAFEKELAKAGLDNVDAESKEGTPSANSSIQQEVGLPYSELLSRFFNILRTNNPELAGDRSGPKFRIPPPVCLRDGKKTIFSNIQDIAEKLHRSPEHLIQYLFAELGTAGSVDGQKRLVIAGKFQSKQMENVLRRYILEYVTCKTCKSINTELKREQSNRLFFMVCKSCGSTRSVSSIKTGFQATVGKRRRM [chain 1 S202A K214A]: the response is 0.84 eIF2Bε:eIF2β.
chain 1 MSSDLAAELGFDPALKKKKKTKKVIPDDFDAAVNGKENGSGDDLFAGLKKKKKKSKSVSADAEAEKEPTDDIAEALGELSLKKKKKKTKDSSVDAFEKELAKAGLDNVDAESKEGTPSANSSIQQEVGLPYSELLSRFFNILRTNNPELAGDRSGPKFRIPPPVCLRDGKKTIFSNIQDIAEKLHRSPEHLIQYLFAELGTSGSVDGQKRLVIKGKAQSKAMENVLRRYILEYVTCKTCKSINTELKREQSNRLFFMVCKSCGSTRSVSSIKTGFQATVGKRRRM [chain 1 F217A Q221A]: the response was 0.63 eIF2Bε:eIF2β.

Variants of B2 are the subject of a further experiment. The description is as above. The following applies: three biological replicates, read off a plot.
Consider chain 1 MSSDLAAELGFDPALKKKKKTKKVIPDDFDAAVNGKENGSGDDLFAGLKKKKKKSKSVSADAEAEKEPTDDIAEALGELSLKKKKKKTKDSSVDAFEKELAKAGLDNVDAESKEGTPSANSSIQQEVGLPYSELLSRFFNILRTNNPELAGDRSGPKFRIPPPVCLRDGKKTIFSNIQDIAEKLHRSPEHLIQYLFAELGTSGSVDGQKRLVIKGKAQSKAMENVLRRYILEYVTCKTCKSINTELKREQSNRLFFMVCKSCGSTRSVSSIKTGFQATVGKRRRM [chain 1 F217A Q221A], for which the response was 0.94 eIF2α:eIF2β.
On to chain 1 MSSDLAAELGFDPALKKKKKTKKVIPDDFDAAVNGKENGSGDDLFAGLKKKKKKSKSVSADAEAEKEPTDDIAEALGELSLKKKKKKTKDSSVDAFEKELAKAGLDNVDAESKEGTPSANSSIQQEVGLPYSELLSRFFNILRTNNPELAGDRSGPKFRIPPPVCLRDGKKTIFSNIQDIAEKLHRSPEHLIQYLFAELGTAGSVDGQKRLVIAGKFQSKQMENVLRRYILEYVTCKTCKSINTELKREQSNRLFFMVCKSCGSTRSVSSIKTGFQATVGKRRRM [chain 1 S202A K214A], for which the response was 0.96 eIF2α:eIF2β.
